Assay results: patent US20140336110A1
Starred links: 1 amine or outer side, 2 acyl side, 3 side chain; linkers in the order of their positions; H or OH if unused. Non-standard residues stand in square brackets, D forms with d. Primed or numbered codes have the meaning given here. No end group written: not given here. *: point of attachment. PEG12 = NCCOCCOCCOCCOCCOCCOCCOCCOCCOCCOCCOCCOCCC(=O)O; Oic = O=C(O)[C@@H]1C[C@@H]2CCCC[C@@H]2N1; Dip = N[C@H](C(=O)O)C(c1ccccc1)c1ccccc1; Ida″ = O=C(CN(CC(=O)[*:3])[*:1])[*:2]; Palmitoyl = CCCCCCCCCCCCCCCC(=O)*; β3hF = N[C@H](CC(=O)O)Cc1ccccc1; NMeD = CN[C@@H](CC(=O)O)C(=O)O; β3hP = O=C(O)C[C@@H]1CCCN1; Ach = not defined here; Dpa = not defined here

B1: Hep10 (Hep1-10 C7A) (peptide)
peptide: DTHFPIAIFC-NH2
B2: Hep25 F9A (peptide)
peptide: DTHFPICIACCGCCHRSKCGMCCKT
B3: Hep25 F4A (peptide)
peptide: DTHAPICIFCCGCCHRSKCGMCCKT
B4: Hep9 (Hep1-9) (peptide)
peptide: DTHFPICIF-NH2
B5: PR47 (peptide)
peptide: {Palmitoyl-PEG12}-FICIP[Dip]HTD
modifications: not fully specified (C-terminus); printed as R4-F-I-C-I-P-Dpa-H-T-D; also: retroinverted, D residues underlined, underlining lost
B6: PR56 (peptide)
peptide: [NMeD]TH[Dpa][Oic]RCR[β3hF]
modifications: reading uncertain; also: R14 = Palmitoyl-PEG-miniPEG3- substituent, attachment not placed
B7: PR55 (peptide)
peptide: [NMeD]TH[Dpa]P[Ach]C[Ach]F
modifications: reading uncertain; also: R14 = Palmitoyl-PEG-miniPEG3- substituent, attachment not placed
B8: PR52 (peptide)
peptide: {Palmitoyl-PEG12}-FLCLP[Dip]HTD
modifications: not fully specified (C-terminus); printed as R4-F-L-C-L-P-Dpa-H-T-D; also: retroinverted, D residues underlined, underlining lost
B9: PR49 (peptide)
peptide: {Palmitoyl-PEG12}-FICIP[Dip]H
modifications: not fully specified (C-terminus); printed as R4-F-I-C-I-P-Dpa-H; also: retroinverted, D residues underlined, underlining lost
B10: PR48 (peptide)
peptide: {Palmitoyl-PEG12}-[Dip]ICIP[Dip]HTD
modifications: not fully specified (C-terminus); printed as R4-Dpa-I-C-I-P-Dpa-H-T-D; also: retroinverted, D residues underlined, underlining lost
B11: PR53 (peptide)
peptide: [NMeD]TH[Dpa]PICI[β3hF]
modifications: reading uncertain; also: R14 = Palmitoyl-PEG-miniPEG3- substituent, attachment not placed
B12: PR54 (peptide)
peptide: [NMeD]TH[Dpa][β3hP]ICI[β3hF]
modifications: reading uncertain; also: R14 = Palmitoyl-PEG-miniPEG3- substituent, attachment not placed
B13: PR57 (peptide)
peptide: [NMeD]TH[Dpa][β3hP]RCR[β3hF]
modifications: reading uncertain; also: R14 = Palmitoyl-PEG-miniPEG3- substituent, attachment not placed
B14: PR60 (peptide)
peptide: [Ida″]TH[Dpa]P[Ach]C[Ach]F
modifications: reading uncertain; also: R14 = Palmitoyl-PEG-miniPEG3- substituent, attachment not placed
B15: PR50 (peptide)
peptide: {Palmitoyl-PEG12}-[Dip]ICIP[Dip]H
modifications: not fully specified (C-terminus); printed as R4-Dpa-I-C-I-P-Dpa-H; also: retroinverted, D residues underlined, underlining lost
B16: PR58 (peptide)
peptide: [Ida″]TH[Dpa]PICI[β3hF]
modifications: reading uncertain; also: R14 = Palmitoyl-PEG-miniPEG3- substituent, attachment not placed
B17: PR59 (peptide)
peptide: [Ida″]TH[Dpa][β3hP]ICI[β3hF]
modifications: reading uncertain; also: R14 = Palmitoyl-PEG-miniPEG3- substituent, attachment not placed
B18: PR51 (peptide)
peptide: {Palmitoyl-PEG12}-FVCVP[Dip]HTD
modifications: not fully specified (C-terminus); printed as R4-F-V-C-V-P-Dpa-H-T-D; also: retroinverted, D residues underlined, underlining lost

The binders below were run against ferroportin tagged at the C-terminus with green fluorescent protein [GFP: P42212] (assay: cell-based or functional assay).
B1 gave a potency against Hep25 on a mass basis, flow-cytometry assay of ferroportin-GFP internalization (times less potent than Hep25) of 4 and a potency against Hep25 on a molar basis, flow-cytometry assay of ferroportin-GFP internalization (times less potent than Hep25) of 10. Work on B2 yielded a relative hepcidin activity (FIG. 1) greater than 70 % decrease. For B3, the relative hepcidin activity (FIG. 1) was greater than 70 % decrease. Work on B4 yielded a potency against Hep25 on a mass basis, flow-cytometry assay of ferroportin-GFP internalization (times less potent than Hep25) of 4 and a potency against Hep25 on a molar basis, flow-cytometry assay of ferroportin-GFP internalization (times less potent than Hep25) of 10.

Molecular target: ferroportin tagged at the C-terminus with green fluorescent protein [GFP: P42212]
Assay: cell-based or functional assay
Remark: another data set of the same source
B5 was tested, and the EC50 (nM) in vitro was 50 nM. For B6, the EC50 (nM) in vitro was 15 nM. B7 was tested, and the EC50 (nM) in vitro was 10 nM. Work on B8 yielded an EC50 (nM) in vitro of less than 10 nM. In the case of B9, the EC50 (nM) in vitro is reported as less than 10 nM. For B10, the EC50 (nM) in vitro was 50 nM. In the case of B11, the EC50 (nM) in vitro is reported as 10 nM. Binder B12 has an EC50 (nM) in vitro of 10 nM. With B13 the EC50 (nM) in vitro was 2 nM. B14 showed an EC50 (nM) in vitro of 3 nM. Work on B15 yielded an EC50 (nM) in vitro of less than 10 nM. B16 showed an EC50 (nM) in vitro of 1 nM. Binder B17 has an EC50 (nM) in vitro of 2 nM. B18 gave an EC50 (nM) in vitro of 100 nM.
